Reference: EP0751225B1, “Process for the identification of proteolytic activities and/or inhibitors thereof” (TECNOGEN S.C.P.A., priority 1990, dated 1992)

Target: T1, ET [16-29] (Homo sapiens, UniProt P05305)
T1 construct: made in house; host or cells: chemical solid-phase peptide synthesis (Fmoc)
Experiment: Capacity of affinity chromatography columns prepared with the immobilized peptides (retention of injected ET [16-29])
Format: binding
Conditions: 500 microlitres of ET [16-29] at 1 mg/ml injected; peptide immobilized on EUPERGIT C30 N; 0.1 M TRIS HCL pH 6.8, 1 ml/min
Experimental: The peptides Δ ET [16-29] and 8 Δ ET [16-29] have immobilized on a support previously activated through the introduction of epoxide groups (EUPERGIT C30 N), employing the same peptide/support ratio. The peptides 8 Δ ET [16-29] (2 mg) and Δ ET [16-29] (2 mg) have been dissolved separately in 10 ml of 0.1 M […], 0.5 M NaCl, pH 8.5, and added separately to two aliquots of 1 g of EUPERGIT C30 N. The mixtures have been incubated for 24 hours under stirring at room temperature. The introduction of the peptides within the resin has been followed by means of RP-HPLC, and after 24 hours an amount of about 80 % of the peptide initially present in the two preparations turned out to be covalently linked to the support. Such incorporation percentage has been then confirmed by analysis of amino acids, which analysis were carried out on weighed amounts of the two derivatized resins.
The two derivatized peptide supports were employed for filling two glass columns for affinity chromatography (80 x 6.6 mm I.D., total volume 2.3 ml) that were equilibrated with 0.1 M TRIS* HCL, at pH 6.8 and with a flowrate of 1 ml/min. The eluent was continuously monitored by means of optical absorption determinations at 280 nm wavelength. For determining the capacity of the columns, 500 microlitres of ET [16-29] dissolved at a concentration of 1 mg/ml in the elution buffer were injected. […]

- injected material retained by the column: 50%
Sequence: RKFLAGLRARRLKF [Δ ET [16-29]]
